# Source: article PMC7231638
# Where two headings read alike, the source gives them in different places.
# Assays:
# Mre11ND Y187C [1] = biological target: T1, Mre11ND Y187C (Pyrococcus furiosus, UniProt Q8U1N9 1-342, Y187C); test: fluorescence polarization
# Mre11ND H52S [2] = biological target: T2, Mre11ND H52S (Pyrococcus furiosus, UniProt Q8U1N9 1-342, H52S); test: fluorescence polarization
# Mre11ND WT [3] = biological target: T3, Mre11ND WT (Pyrococcus furiosus, UniProt Q8U1N9 1-342); test: fluorescence polarization
# Mre11ND Y187F [4] = biological target: T4, Mre11ND Y187F (Pyrococcus furiosus, UniProt Q8U1N9 1-342, Y187F); test: fluorescence polarization
# [5] = biological target: T5, Mre11 Y187C (in MRNBD);Rad50NBD (Pyrococcus furiosus;Pyrococcus furiosus, UniProt Q8U1N9;P58301 1-426;1-195+709-882, Y187C|internal_change); test: fluorescence polarization
# [6] = biological target: T6, Mre11 Y187F (in MRNBD);Rad50NBD (Pyrococcus furiosus;Pyrococcus furiosus, UniProt Q8U1N9;P58301 1-426;1-195+709-882, Y187F|internal_change); test: fluorescence polarization
# [7] = biological target: T7, Mre11 WT (in MRNBD);Rad50NBD (Pyrococcus furiosus;Pyrococcus furiosus, UniProt Q8U1N9;P58301 1-426;1-195+709-882, |internal_change); test: fluorescence polarization
# [8] = biological target: T8, Mre11 H52S (in MRNBD);Rad50NBD (Pyrococcus furiosus;Pyrococcus furiosus, UniProt Q8U1N9;P58301 1-426;1-195+709-882, H52S|internal_change); test: fluorescence polarization
# Mre11ND Y187C [9] = biological target: T1, Mre11ND Y187C; test: fluorescence polarization; remark: listed apart in the source
# Mre11ND WT [10] = biological target: T3, Mre11ND WT; test: fluorescence polarization; remark: listed apart in the source
# Mre11ND H52S [11] = biological target: T2, Mre11ND H52S; test: fluorescence polarization; remark: listed apart in the source
# Mre11ND Y187F [12] = biological target: T4, Mre11ND Y187F; test: fluorescence polarization; remark: listed apart in the source
# [13] = biological target: T5, Mre11 Y187C (in MRNBD);Rad50NBD; test: fluorescence polarization; remark: listed apart in the source
# [14] = biological target: T6, Mre11 Y187F (in MRNBD);Rad50NBD; test: fluorescence polarization; remark: listed apart in the source
# [15] = biological target: T7, Mre11 WT (in MRNBD);Rad50NBD; test: fluorescence polarization; remark: listed apart in the source
# [16] = biological target: T8, Mre11 H52S (in MRNBD);Rad50NBD; test: fluorescence polarization; remark: listed apart in the source
# Mre11ND Y187F [17] = biological target: T4, Mre11ND Y187F; test: NMR imino proton melting
binder,measurement,setting,value
GTGTTCGGACTCTGCCTCAAGACGGTAGTCAACGTGCTTG (ssDNA) [FAM 40-mer ssDNA],Kd,Mre11ND Y187C [1],240 nM
same,Kd,Mre11ND H52S [2],170 nM
same,Kd,Mre11ND WT [3],130 nM
same,Kd,Mre11ND Y187F [4],110 nM
same,Kd,[5],210 nM
same,Kd,[6],190 nM
same,Kd,[7],180 nM
same,Kd,[8],170 nM
FAM 40-mer dsDNA (dsDNA) DNA 1: GTGTTCGGACTCTGCCTCAAGACGGTAGTCAACGTGCTTG DNA 2: CAAGCACGTTGACTACCGTCTTGAGGCAGAGTCCGAACAC,Kd,Mre11ND Y187C [9],1980 nM
same,Kd,Mre11ND WT [10],1300 nM
same,Kd,Mre11ND H52S [11],3170 nM
same,Kd,Mre11ND Y187F [12],710 nM
same,Kd,[13],1800 nM
same,Kd,[14],1320 nM
same,Kd,[15],1410 nM
same,Kd,[16],4170 nM
CACGCACGTAGAAGCTTTTGCTTCTACGTGCGTGACT (structured_DNA) [hairpin dsDNA DSB mimic],binding result,Mre11ND Y187F [17],binds
